{"source": "the supplement of paper PMC9112550", "about": "“Optimization of the antimicrobial peptide Bac7 by deep mutational scanning” (BMC Biology, 2022);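 note: peptides expressed intracellularly from a pBAD plasmid library in pooled LB shake-flask culture, induced with 0.3% L-arabinose, DNA abundance read by NGS, three biological replicates, DESeq2 with apeglm shrinkage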", "data": [{"system": "Escherichia coli TOP10", "test": "shrunken log2 fold change of peptide-encoding DNA abundance (4.5 h post-induction vs induction); higher = less antimicrobial activity (less host growth inhibition)", "details": "time post-induction: 4.5 h; library: site-saturation at positions 5, 18, 19, 20", "values": [{"sequence": "RRIRYRPPRLPRPRPRPCLYPRP", "shrunken log2 fold change": -0.783}, {"sequence": "RRIRVRPPRLPRPRPRPIYQPRP", "shrunken log2 fold change": -0.27}, {"sequence": "RRIRGRPPRLPRPRPRPLGEPRP", "shrunken log2 fold change": 1.08}, {"sequence": "RRIRIRPPRLPRPRPRPCLSPRP", "shrunken log2 fold change": -0.0164}, {"sequence": "RRIRLRPPRLPRPRPRPTQHPRP", "shrunken log2 fold change": 0.218}, {"sequence": "RRIRKRPPRLPRPRPRPWLPPRP", "shrunken log2 fold change": 0.0665}, {"sequence": "RRIRVRPPRLPRPRPRPQHFPRP", "shrunken log2 fold change": 0.0726}, {"sequence": "RRIRQRPPRLPRPRPRPHWTPRP", "shrunken log2 fold change": -0.0125}, {"sequence": "RRIRWRPPRLPRPRPRPQEEPRP", "shrunken log2 fold change": 0.0983}, {"sequence": "RRIRERPPRLPRPRPRPKFYPRP", "shrunken log2 fold change": -0.519}, {"sequence": "RRIRVRPPRLPRPRPRPKDEPRP", "shrunken log2 fold change": -0.205}, {"sequence": "RRIRPRPPRLPRPRPRPSTFPRP", "shrunken log2 fold change": 0.147}, {"sequence": "RRIRQRPPRLPRPRPRPPPQPRP", "shrunken log2 fold change": 0.712}, {"sequence": "RRIRFRPPRLPRPRPRPYNQPRP", "shrunken log2 fold change": -0.881}, {"sequence": "RRIRDRPPRLPRPRPRPCTHPRP", "shrunken log2 fold change": -0.0766}, {"sequence": "RRIRCRPPRLPRPRPRPQIKPRP", "shrunken log2 fold change": -0.762}, {"sequence": "RRIRHRPPRLPRPRPRPDANPRP", "shrunken log2 fold change": 0.152}, {"sequence": "RRIRMRPPRLPRPRPRPQMNPRP", "shrunken log2 fold change": -0.253}, {"sequence": "RRIRSRPPRLPRPRPRPIQEPRP", "shrunken log2 fold change": 0.000527}, {"sequence": "RRIRMRPPRLPRPRPRPSGYPRP", "shrunken log2 fold change": -0.0299}, {"sequence": "RRIRLRPPRLPRPRPRPWYYPRP", "shrunken log2 fold change": -0.266}, {"sequence": "RRIRARPPRLPRPRPRPASGPRP", "shrunken log2 fold change": 1.35}, {"sequence": "RRIRHRPPRLPRPRPRPHPDPRP", "shrunken log2 fold change": -0.206}, {"sequence": "RRIRYRPPRLPRPRPRPELNPRP", "shrunken log2 fold change": -0.395}, {"sequence": "RRIRNRPPRLPRPRPRPNTSPRP", "shrunken log2 fold change": -0.0898}, {"sequence": "RRIRWRPPRLPRPRPRPFHVPRP", "shrunken log2 fold change": -0.0106}, {"sequence": "RRIRCRPPRLPRPRPRPVWNPRP", "shrunken log2 fold change": 0.0577}, {"sequence": "RRIRLRPPRLPRPRPRPERRPRP", "shrunken log2 fold change": -0.0189}, {"sequence": "RRIRWRPPRLPRPRPRPPAQPRP", "shrunken log2 fold change": 0.54}, {"sequence": "RRIRFRPPRLPRPRPRPGRVPRP", "shrunken log2 fold change": 0.787}, {"sequence": "RRIRSRPPRLPRPRPRPIRLPRP", "shrunken log2 fold change": -0.27}, {"sequence": "RRIRERPPRLPRPRPRPRGMPRP", "shrunken log2 fold change": 0.0957}, {"sequence": "RRIRRRPPRLPRPRPRPVNLPRP", "shrunken log2 fold change": 0.219}, {"sequence": "RRIRYRPPRLPRPRPRPPFGPRP", "shrunken log2 fold change": -0.386}, {"sequence": "RRIRCRPPRLPRPRPRPRAKPRP", "shrunken log2 fold change": 0.26}, {"sequence": "RRIRHRPPRLPRPRPRPTSPPRP", "shrunken log2 fold change": -0.0524}, {"sequence": "RRIRQRPPRLPRPRPRPCFSPRP", "shrunken log2 fold change": -0.0347}, {"sequence": "RRIRFRPPRLPRPRPRPWHNPRP", "shrunken log2 fold change": 0.0654}, {"sequence": "RRIRQRPPRLPRPRPRPRVGPRP", "shrunken log2 fold change": 0.71}, {"sequence": "RRIRNRPPRLPRPRPRPEFDPRP", "shrunken log2 fold change": 0.0248}, {"sequence": "RRIRERPPRLPRPRPRPQTEPRP", "shrunken log2 fold change": -0.0317}, {"sequence": "RRIRWRPPRLPRPRPRPPTVPRP", "shrunken log2 fold change": 0.144}, {"sequence": "RRIRGRPPRLPRPRPRPTWHPRP", "shrunken log2 fold change": 0.468}, {"sequence": "RRIRVRPPRLPRPRPRPKEAPRP", "shrunken log2 fold change": -0.0421}, {"sequence": "RRIRSRPPRLPRPRPRPPALPRP", "shrunken log2 fold change": 0.453}, {"sequence": "RRIRWRPPRLPRPRPRPWFSPRP", "shrunken log2 fold change": 0.0565}, {"sequence": "RRIRKRPPRLPRPRPRPMYNPRP", "shrunken log2 fold change": -0.315}, {"sequence": "RRIRPRPPRLPRPRPRPDALPRP", "shrunken log2 fold change": 0.0315}, {"sequence": "RRIRKRPPRLPRPRPRPHQQPRP", "shrunken log2 fold change": -0.0506}, {"sequence": "RRIRLRPPRLPRPRPRPVDAPRP", "shrunken log2 fold change": 0.243}, {"sequence": "RRIRWRPPRLPRPRPRPQHGPRP", "shrunken log2 fold change": -0.164}, {"sequence": "RRIRCRPPRLPRPRPRPPTPPRP", "shrunken log2 fold change": 0.776}, {"sequence": "RRIRSRPPRLPRPRPRPGMDPRP", "shrunken log2 fold change": 0.0734}, {"sequence": "RRIRMRPPRLPRPRPRPESTPRP", "shrunken log2 fold change": 2.28}, {"sequence": "RRIRHRPPRLPRPRPRPNYHPRP", "shrunken log2 fold change": -0.83}, {"sequence": "RRIRSRPPRLPRPRPRPYMHPRP", "shrunken log2 fold change": -0.395}, {"sequence": "RRIRDRPPRLPRPRPRPDHNPRP", "shrunken log2 fold change": 0.0311}, {"sequence": "RRIRIRPPRLPRPRPRPPTEPRP", "shrunken log2 fold change": -0.323}, {"sequence": "RRIRDRPPRLPRPRPRPSKAPRP", "shrunken log2 fold change": -0.393}, {"sequence": "RRIRARPPRLPRPRPRPVIQPRP", "shrunken log2 fold change": 0.0904}]}]}
